In this series the target is T1, LeuB DBD (LeuBM50-125YS, SPR) (Aspergillus fumigatus, UniProt Q4WI12 224-299).
T1 sequence: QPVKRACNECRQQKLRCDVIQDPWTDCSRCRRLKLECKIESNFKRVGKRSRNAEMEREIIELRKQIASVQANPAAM
Put plainly: SPR; 10 uM ZnCl2; 30 ug/ml poly(dAdT); SPR: 10 mM HEPES pH 7.4, 150 mM NaCl, 0.005% P20, 5 mM beta-mercaptoethanol, 10 uM ZnCl2, 25 C, LeuB DBD 6.25-400 nM with 30 ug/ml poly(dAdT); EMSA: as previously described (not given), 1 ug salmon sperm DNA as nonspecific or 100-fold cold probe as competitor. As to conditions: protein: recombinant; tags: none stated; chain copies: 2; label: biotin; 16 bp duplex.

B1: leuA 16 bp SPR duplex (dsDNA)
DNA 1: GGACCGATGTCGGATC
DNA 2: GATCCGACATCGGTCC
On to B1, for which the Kd is 95.2 nM.

B2: hapX 16 bp SPR duplex (dsDNA)
DNA 1: CCGCCGAAATCGGGAA
DNA 2: TTCCCGATTTCGGCGG
With B2, the Kd was determined as 160 nM.

For the origin of these results see paper PMC6221358, “The Zn2Cys6-type transcription factor LeuB cross-links regulation of leucine biosynthesis and iron acquisition in Aspergillus fumigatus”.
